Measurements reported in paper PMC10154249, “Unique progerin C-terminal peptide ameliorates Hutchinson–Gilford progeria syndrome phenotype by rescuing BUBR1” (Nature Aging, 2023).

B1: progerin (protein)
chain: METPSQRRATRSGAQASSTPLSPTRITRLQEKEDLQELNDRLAVYIDRVRSLETENAGLRLRITESEEVVSREVSGIKAAYEAELGDARKTLDSVAKERARLQLELSKVREEFKELKARNTKKEGDLIAAQARLKDLEALLNSKEAALSTALSEKRTLEGELHDLRGQVAKLEAALGEAKKQLQDEMLRRVDAENRLQTMKEELDFQKNIYSEELRETKRRHETRLVEIDNGKQREFESRLADALQELRAQHEDQVEQYKKELEKTYSAKLDNARQSAERNSNLVGAAHEELQQSRIRIDSLSAQLSQLQKQLAAKEAKLRDLEDSLARERDTSRRLLAEKEREMAEMRARMQQQLDEYQELLDIKLALDMEIHAYRKLLEGEEERLRLSPSPTSQRSRGRASSHSSQTQGGGSVTKKRKLESTESRSSFSQHARTSGRVAVEEVDEEGKFVRLRNKSNEDQSMGNWQIKRQNGDDPLLTYRFPPKFTLKAGQVVTIWAAGAGATHSPPTDLVWKAQNTWGCGNSLRTALINSTGEEVAMRKLVRSVTVVEDDEDEDGDDLLHHHHGSHCSSSGDPAEYNLRSRTVLCGTCGQPADKASASGSGAQSPQNCSIM
modifications: left off: GST, end not stated, kept
B2: mVenus-progerin (protein)
chain: B1 chain
modifications: left off: mVenus, end not stated, kept

Legend:
IMR90 cells [1] = assay: Ki67 immunofluorescence of IMR90 cells; type: cell-based, human; details: Fig.1k, IMR90, Vector 67, 75, 60, P vs Vector: BUBR1 0.803, progerin 0.0018
Method: (§1) Immunofluorescence was performed as described previously. Cells were plated on cover slips in 12-well plates, left overnight before the treatment. Cells were fixed in 1% formaldehyde in culture medium for 10 min at 37 °C and permeabilized with 0.2% Triton X-100 in PBS for 10 min at room temperature. Cells were washed twice in PBS and blocked for 1 h with 5% BSA in PBS and then incubated with primary antibodies at 4 °C overnight, washed three times in PBS and incubated with secondary antibodies for 1 h at room temperature. Cell nuclei were counterstained with a 500 nM concentration of 4,6-diamidino-2-phenylindole (DAPI) (Sigma). Images were acquired by a fluorescence microscope (OLYMPUS FV-1000, Carl Zeiss LSM880 or Leica DMi8) and analyzed with software NIS-Elements AR v.5.0.1 (Nikon), FLUOVIEW v.4.2b (OLYMPUS), ZEN v.2.3 SP1 (Carl Zeiss) and Leica Application Suite X v.3.6.0.24 (Leica). Cells were quantified by investigators who were blinded to the identity of the analyzed cell.

[2] = system: IMR90 and HGADFN003 cells; assay: Metaphase chromosome spread assay, aneuploid cells; type: cell-based, human; details: Fig.1p, IMR90, Vector 6, 5, 8
Method: For the metaphase chromosome spread assay, 1.5 × 10^6 cells were seeded in a 6 cm dish and incubated for 24 h with fresh medium. Then, colchicine was added to a final concentration of 0.2 μg ml^–1 and the cells were incubated at 37 °C for 2 h. After digestion, we collected and rinsed the cells with PBS. The cells were centrifuged at 160g for 10 min. Then, 1 M KCl was added to a final concentration of 0.075 mol l^–1 and the samples were incubated at 37 °C for 20 min. The cells were centrifuged, and the supernatant aspirated. The pellet was resuspended, and 1 ml methanol:glacial acetic acid (3:1) solution was added. The sample was rested at room temperature for 10 min. Then, the cells were centrifuged at 160g for 10 min. The supernatant was aspirated, and the pellet resuspended in 1 ml fixative for 30 min. The cells were centrifuged and the pellet was suspended in 1 ml fixative again for 30 min. The cells were centrifuged at 160g for 10 min and the supernatant aspirated. The pellet was then resuspended in a small volume of fixative (typically less than 500 μl) until the cell suspension appeared lightly milky. A small quantity of the cell suspension was held vertically in a pipette with the end about 10 cm above the slide. A single drop was released from this height onto the slide and allowed to air dry. The cells were then incubated with 500 nM of DAPI (Invitrogen) for 10 min. Slides were examined with an Olympus BX53 fluorescence microscope and the images were captured by using the Olympus IPP v.7.0 software. Aneuploid cells were quantified by investigators who were blinded to the identity of the analyzed cell.

PTBP1–BUBR1 mRNA 3′-UTR = assay: RIP assay of PTBP1 and BUBR1 mRNA 3′-UTR in HEK-293T cells; type: cell-based; details: Fig. 4n, PTBP1+progerin, P=0.0002 vs PTBP1
Method: RIP and RNA pulldown assays were performed as previously described. The RIP experiment was carried out using the EZ-Magna RIP Kit (Millipore, catalog no. 17-701). The coprecipitated RNAs were extracted through Trizol reagent and detected by RT-PCR. The primer sequences for PCR, synthesized by Comate Bioscience, were as follows:
BUBR1-3′UTR_fwd (5′-[…]-3′) and BUBR1-3′UTR_rev (5′- […]-3′).

IMR90 cells [3] = assay: SA-β-gal staining of IMR90 cells (progerin, BUBR1, shBUBR1); type: cell-based, human; details: Fig.1i
Method: SA-β-gal staining was performed as previously described. Cells were fixed in 0.5% glutaraldehyde for 15 min at room temperature, washed three times with PBS (pH 6.0) containing 1 mM MgCl2 and exposed overnight 37 °C to containing 1 mg ml^–1 5-bromo-4-chloro-3-indolyl-β-D-galactopyranoside (MCE, catalog no. HY-15934), 0.12 mM potassium ferrocyanide (Sigma, catalog no. P3289), 0.12 mM potassium ferricyanide (Sigma, catalog no. P8131) and 1 mM MgCl2 PBS buffer (pH 6.0). Cells were washed three times with H2O and observed under a microscope (OLYMPUS CKX53). SA-β-gal positive cells were quantified by investigators who were blinded to the identity of the analyzed cell.

[4] = system: BUBR1 kinetochore localization in H1299 cells; assay: Immunofluorescence, abnormal localization of BUBR1 in H1299 cells; type: cell-based; details: Fig. 3h, H1299, Vector 7, 11, 14, P=0.0008 vs Vector
Method: as §1

BUBR1 = BUBR1 nuclear membrane localization in IMR90, HGADFN003 or H1299 cells; type: cell-based, human; details: Fig. 2c
Method: as §1

Molecule	Relative percentage of Ki67 positive cells (IMR90 cells [1]; replicate 1)	Relative percentage of Ki67 positive cells (IMR90 cells [1]; replicate 2)	Relative percentage of Ki67 positive cells (IMR90 cells [1]; replicate 3)	Relative percentage of aneuploid cells ([2]; replicate 1)	Relative percentage of aneuploid cells ([2]; replicate 2)	Relative percentage of aneuploid cells ([2]; replicate 3)	PTBP1 enrichment on BUBR1-3'UTR (2-ΔΔCt) (PTBP1–BUBR1 mRNA 3′-UTR; replicate 1)	PTBP1 enrichment on BUBR1-3'UTR (2-ΔΔCt) (PTBP1–BUBR1 mRNA 3′-UTR; replicate 2)	PTBP1 enrichment on BUBR1-3'UTR (2-ΔΔCt) (PTBP1–BUBR1 mRNA 3′-UTR; replicate 3)	Relative percentage of SA-β-gal positive cells (IMR90 cells [3]; Vector 2, 1, 2, P vs Vector: BUBR1 0.2302, progerin 0.0003, replicate 1)	Relative percentage of SA-β-gal positive cells (IMR90 cells [3]; Vector 2, 1, 2, P vs Vector: BUBR1 0.2302, progerin 0.0003, replicate 2)	Relative percentage of SA-β-gal positive cells (IMR90 cells [3]; Vector 2, 1, 2, P vs Vector: BUBR1 0.2302, progerin 0.0003, replicate 3)	Relative percentage of the number of abnormal localization cells of BUBR1 ([4]; replicate 1)	Relative percentage of the number of abnormal localization cells of BUBR1 ([4]; replicate 2)	Relative percentage of the number of abnormal localization cells of BUBR1 ([4]; replicate 3)	BUBR1 nuclear membrane localization of injected cells (BUBR1; mVenus 1, 2, 2, P<0.0001, replicate 1)	BUBR1 nuclear membrane localization of injected cells (BUBR1; mVenus 1, 2, 2, P<0.0001, replicate 2)	BUBR1 nuclear membrane localization of injected cells (BUBR1; mVenus 1, 2, 2, P<0.0001, replicate 3)
B1	27%	31%	35%	42%	38%	46%	8.488	7.488	7.699	40%	50%	39%	38%	37%	32%	–	–	–
B2	–	–	–	–	–	–	–	–	–	–	–	–	–	–	–	97%	95%	94%
